{"source": "patent US20020032166A1", "about": "“Biocompatible cationic detergents and uses therefor” (University Technology Corporation, priority 1992, published 2002)", "key": {"[1]": {"test": "Apparent water/1-octanol partition coefficient of SDS hydrophobic ion pair complexes", "from_the_text": "The relative solubilities in two phases is given in terms of an apparent partition coefficient. The apparent partition coefficient is defined as the ratio of the equilibrium concentration in an organic phase to that in an aqueous phase. The actual value of the apparent partition coefficient, P, is dependent on the two solvent systems employed. In all cases herein described, the organic phase is 1-octanol and the aqueous phase is water alone or with a minimal amount of HCl added.\n(§3) Apparent partition coefficients were measured by dissolving a peptide in 1.25 ml of an aqueous solution. Before SDS addition, the pH was measured on a Beckman pH meter. Upon addition of an SDS solution, the solutions turned cloudy and a precipitate formed immediately. An equal volume of 1-octanol was added and the mixtures agitated, and then left undisturbed for several hours. Prior to analysis, the tubes were spun for 10 minutes at 4000 g. Each layer was removed and the absorbance measured on a Beckman DU-64 UV-visible spectrophotometer using 1 cm quartz cells. All apparent partition coefficients were corrected for changes in pH with differing SDS concentrations.\nResults are described as logarithms of the apparent partition coefficient. A log P value of 0 means that the compound is equally soluble in water and the organic phase."}, "[2]": {"test_system": "COS-7 cells", "test": "Cytotoxicity, MTS cell proliferation assay", "type": "cell-based, green monkey", "conditions": "for IC50: Chlorocebus sabaeus, 2-6 h exposure, 72 h growth, read-out: IC50 (half-maximal growth inhibition)", "source_text": "(§1) The cytotoxicity of arginine dodecyl ester was investigated in cell culture with two types of cells (see Cory et al., Cancer Commun., 3, 207-212 (1991)): CCRF-CEM cells, a human T-cell leukemia cell line that grows in suspension (obtained from the American Type Culture Collection, ATCC); and a green monkey kidney cell line (COS-7) that grows in monolayers (also obtained from ATCC). For comparison, the cells were also exposed to […] bromide (DTAB) (Sigma).\n(§2) Cells were plated into 96-well plates (Corning) in a total of 200 μL Dulbecco's modified minimal essential medium for COS-7 cells, RPMI 1640 for CEM cells, supplemented with penicillin G (50 U/ml), streptomycin sulfate (50 μg/ml), and 10% fetal calf serum, at 10,000 cells/well for COS-7 amd 50,000 cells/well for CEM cells. The plates were incubated at 37° C. for 24 hours after plating. The cells were then exposed to various concentrations of the detergents. Each detergent concentration was used in 8 replicate wells. After 2-6 hours, media/detergent solutions were aspirated, and the wells were washed twice with PBS. For CEM suspension cells, centrifugation of the suspension at 1000×g for 5 min between each wash was required. After washing, 200 μL of fresh medium were added, and the cells were incubated for 72 hours. After 72 hours, cell proliferation was determined using the Promega CellTiter 96 AQueous Non-Radioactive Cell Proliferation Assay.\nCC-CHOL was tested for cytotoxicity as described in Example 38 using COS-7 and JEG-3 cells. JEG-3 cells are a human choriocarcinoma cell line available from ATCC. The culture medium was Eagle's minimum essential medium containing 10% serum."}, "[3]": {"test_system": "CCRF-CEM cells", "test": "Cytotoxicity, MTS cell proliferation assay", "type": "cell-based, human", "conditions": "for IC50: Homo sapiens, 2-6 h exposure, 72 h growth, read-out: IC50 (half-maximal growth inhibition)", "source_text": "as §1, §2"}, "[4]": {"test": "Partitioning of anionic compounds with arginine esters", "type": "physicochemical", "procedure": "Stock solutions of the arginine esters were made by first dissolving the powder in 0.1 N HCl to give a 10 mM solution and then raising the pH to a value between 5 and 6. The pH should not be raised above 8.\nAnionic compounds were dissolved in pH 5.5 buffer (10 mM bis-tris propane, 10 mM CaCl2, 10 mM KCl). Appropriate amounts of the stock solution of arginine ester (see above), the anionic compound and buffer were mixed so that the final concentration of the anionic material was 1 mg/mL. An equal volume of organic solvent was added, and the samples were vortexed for 15 seconds on high speed. Layers were separated by centrifugation at 4000 rpm for 5 minutes. Concentrations of the anionic material in the aqueous and organic layers were determined by UV spectroscopy on a Beckman DU-64 series spectrophotometer."}, "[5]": {"test_system": "COS-7 cells", "test": "Transfection of pRSV400luc plasmid, luciferase activity", "type": "cell-based, green monkey", "conditions": "no liposomes or helper lipids", "source_text": "The plasmid used was pRSV400luc. It was obtained from Dr. David Gordon, Div. Endocrinology, University of Colorado School of Medicine, Denver, Colo. It was propagated in Escherichia coli strain DH5a (ATCC), isolated by a standard alkaline-SDS lysis procedure, and purified twice by isopycnic centrifugation on CsCl gradients (Sambrook et al., Molecular Cloning: A Laboratory Manual (Cold Spring Harbor Laboratory) (1989). COS-7 cells at approximately 50,000 cells per 60 mm diameter plate (Falcon) were used for transfection. Control experiments were done with Lipofectamine (GIBCO/Life Technologies, Gaithersburg, Md.).\nIn 200 total μL of serum-free medium, plasmid (20 μg) and Lipofectamine or arginine dodecyl ester were mixed and allowed to interact for 45 minutes. The volume was then brought to 1 mL with serum-free medium. Plates with cells were washed with serum-free medium. […]\nAfter allowing cells to grow and express gene product for 36-50 hours, the cells were harvested. […] Intensity of luminescence should be proportional to the amount of expressed luciferase and, therefore, the efficiency of transfection. “Background” is the reading from just the substrate mixture on the luminometer before addition of cell lysate. […] Any reading over 100 units is considered significant."}, "[6]": {"test": "Surface tension, critical micelle concentration", "type": "physicochemical", "conditions": "in 0.1 N HCl", "procedure": "Surface tension was measured using a Fisher surface tensiometer. Briefly, a platinum iridium ring with a diameter of 6 cm was lowered into the appropriate dilution of detergent in 0.1 N HCl. Surface tension was read at the point where the force on the ring upwards caused the ring to break contact with the liquid surface."}, "[7]": {"test": "Solubility of arginine octyl ester powder", "type": "physicochemical"}, "[8]": {"test": "Thermal denaturation / melting point followed at 222 nm (CD, absorbance)", "type": "physicochemical", "procedure": "Both circular dichroism (CD) signal and light scattering (as measured by changes in absorbance) were measured at 222 nm and the melting point determined by an inflection point in the measured scan."}, "[9]": {"conditions": "aqueous solution; cited from earlier work"}, "[10]": {"test": "Apparent solubility of HIP complexes in organic solvents"}, "[11]": {"conditions": "SDS-insulin complex", "method": "as §3"}}, "note": "Where “and” joins values, the source holds several entries; their conditions need not be identical. Identical values can stand only once. Like-named read-outs stand apart in the source and are kept apart here.", "data": [{"compound": "NC(=O)CC[C@@H]1NC(=O)[C@H](Cc2ccccc2)NC(=O)[C@H](Cc2ccc(O)cc2)NC(=O)[C@@H](N)CSSC[C@@H](C(=O)N2CCC[C@H]2C(=O)N[C@@H](CCCN=C(N)N)C(=O)NCC(N)=O)NC(=O)[C@H](CC(N)=O)NC1=O", "note": "[AVP, 8-Arg-vasopressin]", "values": [{"measurement": "increase of apparent partition coefficient on SDS addition", "setting": "[1]; 1-octanol/water, stoichiometric SDS", "value": "nearly four orders of magnitude"}]}, {"compound": "CCCCCCCCCCCCCC[N+](C)(C)C", "note": "[DTAB, tetradecyltrimethylammonium bromide, reference compound]", "values": [{"measurement": "IC50", "setting": "[2]", "value": 80, "unit": "µM"}, {"measurement": "IC50", "setting": "[3]", "value": 20, "unit": "µM"}]}, {"compound": "Nc1ncnc2c1ncn2[C@@H]1O[C@H](COP(=O)(O)OP(=O)(O)OP(=O)(O)O)[C@@H](O)[C@H]1O", "note": "[adenosine triphosphate]", "values": [{"measurement": "log p", "setting": "[4]; octanol/pH 5.5 buffer, pH 5.5, ester C12, detergent:anionic compound 1:1, solvent octanol, read-out: log p", "value": -1.48}, {"measurement": "log p", "setting": "[4]; octanol/pH 5.5 buffer, pH 5.5, ester C12, detergent:anionic compound 3:1, solvent octanol, read-out: log p", "value": 0.022}, {"measurement": "log p", "setting": "[4]; octanol/pH 5.5 buffer, pH 5.5, ester none, solvent octanol, pH 5.5 buffer, read-out: log p", "value": -3.23}]}, {"compound": "CCCCCCCCCCCCOC(=O)[C@@H](N)CCCNC(=N)N", "note": "[arginine dodecyl ester]", "values": [{"measurement": "transfection of plasmid", "setting": "[5]", "value": "promoted transection of the plasmid in a concentration and time dependent manner"}, {"measurement": "critical micelle concentration (cmc)", "setting": "[6]", "value": "approximately 0.3 mM and ~0.10 mg/ml"}, {"measurement": "toxicity relative to DTAB", "setting": "[2]", "value": "approximately two-fold less toxicity"}, {"measurement": "IC50", "setting": "[2]", "value": 175, "unit": "µM"}, {"measurement": "toxicity relative to DTAB", "setting": "[3]", "value": "seven-fold less toxicity"}, {"measurement": "IC50", "setting": "[3]", "value": 150, "unit": "µM"}]}, {"compound": "CCCCCCCCOC(=O)[C@@H](N)CCCNC(=N)N", "note": "[arginine octyl ester]", "values": [{"measurement": "solubility in HCl", "setting": "[7]; HCl", "value": "would only dissolve in 0.1 N or stronger HCl"}, {"measurement": "solubility in organics", "setting": "[7]; alcohols, hydrocarbons, aromatics, DMF, pyridine", "value": "insoluble"}, {"measurement": "solubility in water", "setting": "[7]; water", "value": "insoluble"}, {"measurement": "critical micelle concentration (cmc)", "setting": "[6]", "value": "about 6 mM and ~2.2 mg/ml"}]}, {"compound": "Cc1ccc(S(=O)(=O)[O-])cc1.[Na+]", "note": "[p-toluenesulfonic acid, sodium salt]", "values": [{"measurement": "log p", "setting": "[4]; ester C8 (arginine octyl ester), solvent octanol, pH 5.5 buffer", "value": -0.353}, {"measurement": "log p", "setting": "[4]; ester C8, solvent isooctane, pH 5.5 buffer", "value": -2.2}, {"measurement": "log p", "setting": "[4]; ester C12 (arginine dodecyl ester), solvent octanol, pH 5.5 buffer", "value": -0.336}, {"measurement": "log p", "setting": "[4]; ester none, solvent isooctane, pH 5.5 buffer", "value": -2.7}, {"measurement": "log p", "setting": "[4]; ester none, solvent octanol, pH 5.5 buffer", "value": -1.62}]}, {"compound": "Gly-Phe", "values": [{"measurement": "partitioning into 1-octanol with SDS", "setting": "[1]; pH 3", "value": "mirrors the marked increase seen for Gly-Phe-NH2"}, {"measurement": "partitioning into 1-octanol with SDS", "setting": "[1]; pH 7 / neutral pH", "value": "little enhancement of the partition coefficient"}]}, {"compound": "Gly-Phe-NH2", "values": [{"measurement": "partitioning into 1-octanol with SDS", "setting": "[1]; pH 7 / neutral pH", "value": "readily partitions into 1-octanol"}]}, {"compound": "bovine serum albumin: bovine serum albumin, anionic test protein", "values": [{"measurement": "partitioning into octanol layer", "setting": "[4]; arginine dodecyl ester added, octanol", "value": "none would partition into octanol layer"}]}, {"compound": "hGH: human growth hormone; precipitate with SDS at pH 2", "values": [{"measurement": "solubility in 1-octanol", "setting": "pH 2", "value": "not found to be soluble"}, {"measurement": "aqueous solubility on addition of SDS", "setting": "pH 7.8", "value": "not affected"}]}, {"compound": "insulin-SDS complex: hydrophobic ion pair complex of insulin with sodium dodecyl sulfate", "values": [{"measurement": "structure after prolonged heating", "setting": "[8]; 1-octanol, 70° C. for more than 1 hour", "value": "appears to maintain its native structure"}, {"measurement": "melting point in 1-octanol", "setting": "[8]; SDS:insulin molar ratio 6:1, 200 ug/ml", "value": "about 116 °C"}, {"measurement": "melting point in 1-octanol, CD scan at 222 nm", "setting": "[8]; SDS:insulin molar ratio 9:1 (FIG. 10)", "value": 106, "unit": "°C"}, {"measurement": "melting point in 1-octanol, absorbance scan at 222 nm", "setting": "[8]; SDS:insulin molar ratio 9:1 (FIG. 11)", "value": 106, "unit": "°C"}]}, {"compound": "insulin: insulin, a hydrophilic protein; in Table 1 and in 1-octanol present as SDS complex", "values": [{"measurement": "Tm of thermal denaturation", "setting": "[9]", "value": "about 65 °C"}, {"measurement": "Tm in 1-octanol above that observed in water", "setting": "[8]; 1-octanol vs water", "value": "more than 30 degrees"}, {"measurement": "Apparent Sol.", "setting": "[10]; SDS-insulin complex in 1-Chlorooctane", "value": "insoluble"}, {"measurement": "Apparent Sol.", "setting": "[10]; SDS-insulin complex in 1-octanol", "value": "≧ 1.0 mg/ml"}, {"measurement": "Apparent Sol.", "setting": "[10]; SDS-insulin complex in CCl4", "value": "insoluble"}, {"measurement": "Apparent Sol.", "setting": "[10]; SDS-insulin complex in CH2Cl2", "value": "insoluble"}, {"measurement": "Apparent Sol.", "setting": "[10]; SDS-insulin complex in DMF", "value": "≧ 1.0 mg/ml"}, {"measurement": "Apparent Sol.", "setting": "[10]; SDS-insulin complex in Ethanol", "value": "≧ 1.0 mg/ml"}, {"measurement": "Apparent Sol.", "setting": "[10]; SDS-insulin complex in Ether", "value": "insoluble"}, {"measurement": "Apparent Sol.", "setting": "[10]; SDS-insulin complex in Ethyl acetate", "value": "insoluble"}, {"measurement": "Apparent Sol.", "setting": "[10]; SDS-insulin complex in Hexane", "value": "insoluble"}, {"measurement": "Apparent Sol.", "setting": "[10]; SDS-insulin complex in Methanol", "value": "≧ 1.0 mg/ml"}, {"measurement": "Apparent Sol.", "setting": "[10]; SDS-insulin complex in Mineral Oil", "value": "insoluble"}, {"measurement": "Apparent Sol.", "setting": "[10]; SDS-insulin complex in NMP", "value": "≧ 1.0 mg/ml"}, {"measurement": "Apparent Sol.", "setting": "[10]; SDS-insulin complex in PEG 400", "value": "≧ 0.2 mg/ml"}, {"measurement": "Apparent Sol.", "setting": "[10]; SDS-insulin complex in Propylene Glycol", "value": "≧ 0.5 mg/ml"}, {"measurement": "Apparent Sol.", "setting": "[10]; SDS-insulin complex in TMP", "value": "≧ 0.2 mg/ml"}, {"measurement": "Apparent Sol.", "setting": "[10]; SDS-insulin complex in Trifluoroethanol", "value": "≧ 0.5 mg/ml"}, {"measurement": "Apparent Sol.", "setting": "[10]; SDS-insulin complex in Trimethyl phosphate", "value": "≧ 0.15 mg/ml"}, {"measurement": "Apparent Sol.", "setting": "[10]; SDS-insulin complex in i-Propanol", "value": "≧ 1.0 mg/ml"}, {"measurement": "Log P", "setting": "[11]; organic solvent 1-Chlorooctane", "value": "not detectable"}, {"measurement": "Log P", "setting": "[11]; organic solvent 1-octanol", "value": "≧ 1.2"}, {"measurement": "Log P", "setting": "[11]; organic solvent CCl4", "value": "not detectable"}, {"measurement": "Log P", "setting": "[11]; organic solvent CH2Cl2", "value": "not detectable"}, {"measurement": "Log P", "setting": "[11]; organic solvent Dimethoxyethane", "value": "not detectable"}, {"measurement": "Log P", "setting": "[11]; organic solvent Ether", "value": "not detectable"}, {"measurement": "Log P", "setting": "[11]; organic solvent Hexane", "value": "not detectable"}, {"measurement": "Log P", "setting": "[11]; organic solvent Mineral Oil", "value": "not detectable"}]}]}
